Test results reported in the supplement of paper PMC9112550, “Optimization of the antimicrobial peptide Bac7 by deep mutational scanning” (BMC Biology, 2022).

System: Escherichia coli TOP10
Experiment: shrunken log2 fold change of peptide-encoding DNA abundance (4.5 h post-induction vs induction); higher = less antimicrobial activity (less host growth inhibition)
Conditions: time post-induction: 4.5 h; library: site-saturation at positions 5, 18, 19, 20
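Note: peptides expressed intracellularly from a pBAD plasmid library in pooled LB shake-flask culture, induced with 0.3% L-arabinose, DNA abundance read by NGS, three biological replicates, DESeq2 with apeglm shrinkage.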

RRIRCRPPRLPRPRPRPVRKPRP
shrunken log2 fold change: 0.0744

RRIRMRPPRLPRPRPRPMTEPRP
shrunken log2 fold change: 0.12

RRIRRRPPRLPRPRPRPEMDPRP
shrunken log2 fold change: 0.186

RRIRNRPPRLPRPRPRPPGKPRP
shrunken log2 fold change: 0.484

RRIRDRPPRLPRPRPRPLGWPRP
shrunken log2 fold change: 0.366

RRIRSRPPRLPRPRPRPYQNPRP
shrunken log2 fold change: -0.511

RRIRARPPRLPRPRPRPYADPRP
shrunken log2 fold change: 0.103

RRIRLRPPRLPRPRPRPGHWPRP
shrunken log2 fold change: 0.279

RRIRIRPPRLPRPRPRPPMWPRP
shrunken log2 fold change: 0.00227

RRIRRRPPRLPRPRPRPIAAPRP
shrunken log2 fold change: 0.521

RRIRNRPPRLPRPRPRPEDEPRP
shrunken log2 fold change: -0.0168

RRIRDRPPRLPRPRPRPNRCPRP
shrunken log2 fold change: 0.0339

RRIRVRPPRLPRPRPRPWPDPRP
shrunken log2 fold change: 0.033

RRIRNRPPRLPRPRPRPLRHPRP
shrunken log2 fold change: -0.0731

RRIRCRPPRLPRPRPRPVIWPRP
shrunken log2 fold change: 0.0816

RRIRERPPRLPRPRPRPTIVPRP
shrunken log2 fold change: 0.03

RRIRDRPPRLPRPRPRPSMPPRP
shrunken log2 fold change: -0.164

RRIRWRPPRLPRPRPRPGVRPRP
shrunken log2 fold change: 0.304

RRIRKRPPRLPRPRPRPDYLPRP
shrunken log2 fold change: 0.111

RRIRERPPRLPRPRPRPEQLPRP
shrunken log2 fold change: 0.00434

RRIRPRPPRLPRPRPRPEQAPRP
shrunken log2 fold change: 0.0776

RRIRLRPPRLPRPRPRPVVTPRP
shrunken log2 fold change: -0.0571

RRIRHRPPRLPRPRPRPVLDPRP
shrunken log2 fold change: -0.116

RRIRLRPPRLPRPRPRPSPPPRP
shrunken log2 fold change: 0.198

RRIRIRPPRLPRPRPRPYLAPRP
shrunken log2 fold change: -0.941

RRIRNRPPRLPRPRPRPIQEPRP
shrunken log2 fold change: -0.0116

RRIRARPPRLPRPRPRPCCYPRP
shrunken log2 fold change: 0.0589

RRIRWRPPRLPRPRPRPHDRPRP
shrunken log2 fold change: 0.00489

RRIRTRPPRLPRPRPRPCFFPRP
shrunken log2 fold change: -0.202

RRIRNRPPRLPRPRPRPHIPPRP
shrunken log2 fold change: -0.793

RRIRCRPPRLPRPRPRPEMMPRP
shrunken log2 fold change: 0.0935

RRIRLRPPRLPRPRPRPDRRPRP
shrunken log2 fold change: 0.0766

RRIRSRPPRLPRPRPRPRNCPRP
shrunken log2 fold change: 0.5

RRIRGRPPRLPRPRPRPQKMPRP
shrunken log2 fold change: 0.331

RRIRKRPPRLPRPRPRPFYPPRP
shrunken log2 fold change: -0.0703

RRIRARPPRLPRPRPRPCTQPRP
shrunken log2 fold change: 0.148

RRIRLRPPRLPRPRPRPLAYPRP
shrunken log2 fold change: -0.264

RRIRERPPRLPRPRPRPTFPPRP
shrunken log2 fold change: -0.44

RRIRQRPPRLPRPRPRPVLYPRP
shrunken log2 fold change: 0.0138

RRIRRRPPRLPRPRPRPSQWPRP
shrunken log2 fold change: 0.264

RRIRGRPPRLPRPRPRPHDAPRP
shrunken log2 fold change: 0.00554

RRIRIRPPRLPRPRPRPTNAPRP
shrunken log2 fold change: -0.0508

RRIRDRPPRLPRPRPRPVQKPRP
shrunken log2 fold change: -0.0131

RRIRERPPRLPRPRPRPGALPRP
shrunken log2 fold change: 0.122

RRIRIRPPRLPRPRPRPDEKPRP
shrunken log2 fold change: -0.0762

RRIRTRPPRLPRPRPRPPPQPRP
shrunken log2 fold change: 0.848

RRIRPRPPRLPRPRPRPKLFPRP
shrunken log2 fold change: 0.18

RRIRMRPPRLPRPRPRPHRAPRP
shrunken log2 fold change: 0.677

RRIRMRPPRLPRPRPRPHYNPRP
shrunken log2 fold change: -0.467

RRIRCRPPRLPRPRPRPNFAPRP
shrunken log2 fold change: -0.098

RRIRWRPPRLPRPRPRPTPAPRP
shrunken log2 fold change: 0.584

RRIRVRPPRLPRPRPRPWRVPRP
shrunken log2 fold change: 0.435

RRIRIRPPRLPRPRPRPCDDPRP
shrunken log2 fold change: -0.395

RRIRARPPRLPRPRPRPMMDPRP
shrunken log2 fold change: -0.203

RRIRQRPPRLPRPRPRPYMHPRP
shrunken log2 fold change: -0.512

RRIRRRPPRLPRPRPRPQIYPRP
shrunken log2 fold change: -0.1

RRIRCRPPRLPRPRPRPVMKPRP
shrunken log2 fold change: -0.342

RRIRDRPPRLPRPRPRPEREPRP
shrunken log2 fold change: -0.0248

RRIRVRPPRLPRPRPRPATGPRP
shrunken log2 fold change: 0.119

RRIRTRPPRLPRPRPRPNVCPRP
shrunken log2 fold change: 0.128

RRIRVRPPRLPRPRPRPFTEPRP
shrunken log2 fold change: -0.423

RRIRSRPPRLPRPRPRPDYEPRP
shrunken log2 fold change: -0.221

RRIRVRPPRLPRPRPRPPCIPRP
shrunken log2 fold change: -0.00689

RRIRCRPPRLPRPRPRPHSKPRP
shrunken log2 fold change: -0.438

RRIRFRPPRLPRPRPRPDYAPRP
shrunken log2 fold change: -1.13

RRIRARPPRLPRPRPRPSHGPRP
shrunken log2 fold change: 0.115

RRIRPRPPRLPRPRPRPRPKPRP
shrunken log2 fold change: 3.22

RRIRQRPPRLPRPRPRPWKKPRP
shrunken log2 fold change: -0.000921

RRIRYRPPRLPRPRPRPFFSPRP
shrunken log2 fold change: -0.77

RRIRNRPPRLPRPRPRPWVCPRP
shrunken log2 fold change: 0.037

RRIRYRPPRLPRPRPRPHDNPRP
shrunken log2 fold change: -1.04

RRIRCRPPRLPRPRPRPLEDPRP
shrunken log2 fold change: 0.0306

RRIRHRPPRLPRPRPRPSPTPRP
shrunken log2 fold change: 0.0862

RRIRLRPPRLPRPRPRPYPGPRP
shrunken log2 fold change: -0.251

RRIRSRPPRLPRPRPRPPQEPRP
shrunken log2 fold change: 0.295

RRIRFRPPRLPRPRPRPMPNPRP
shrunken log2 fold change: 0.0592

RRIRIRPPRLPRPRPRPEPTPRP
shrunken log2 fold change: 0.659

RRIRCRPPRLPRPRPRPIPPPRP
shrunken log2 fold change: 0.265

RRIRKRPPRLPRPRPRPQQFPRP
shrunken log2 fold change: -0.0324

RRIRRRPPRLPRPRPRPWAKPRP
shrunken log2 fold change: 0.0786

RRIRTRPPRLPRPRPRPSSCPRP
shrunken log2 fold change: -0.222

RRIRERPPRLPRPRPRPCHCPRP
shrunken log2 fold change: -0.344

RRIRARPPRLPRPRPRPLNVPRP
shrunken log2 fold change: -0.234

RRIRKRPPRLPRPRPRPEPAPRP
shrunken log2 fold change: 1.45

RRIRVRPPRLPRPRPRPGEAPRP
shrunken log2 fold change: 0.474

RRIRQRPPRLPRPRPRPHTSPRP
shrunken log2 fold change: 0.0894

RRIRWRPPRLPRPRPRPMFDPRP
shrunken log2 fold change: 0.139

RRIRQRPPRLPRPRPRPIWWPRP
shrunken log2 fold change: 0.127

RRIRRRPPRLPRPRPRPAVLPRP
shrunken log2 fold change: -0.00596

RRIRWRPPRLPRPRPRPNHAPRP
shrunken log2 fold change: 0.601

RRIRARPPRLPRPRPRPDGHPRP
shrunken log2 fold change: 0.0106

RRIRVRPPRLPRPRPRPNYQPRP
shrunken log2 fold change: -0.699

RRIRLRPPRLPRPRPRPGNKPRP
shrunken log2 fold change: -0.46

RRIRGRPPRLPRPRPRPPYGPRP
shrunken log2 fold change: 0.341

RRIRHRPPRLPRPRPRPSKLPRP
shrunken log2 fold change: -0.448

RRIRLRPPRLPRPRPRPYSWPRP
shrunken log2 fold change: -0.176

RRIRWRPPRLPRPRPRPYYKPRP
shrunken log2 fold change: -0.823

RRIRCRPPRLPRPRPRPWHRPRP
shrunken log2 fold change: 0.0363

RRIRHRPPRLPRPRPRPGYSPRP
shrunken log2 fold change: 0.0976

RRIRYRPPRLPRPRPRPELDPRP
shrunken log2 fold change: -0.165

RRIRKRPPRLPRPRPRPYSIPRP
shrunken log2 fold change: -0.182

RRIRDRPPRLPRPRPRPDQRPRP
shrunken log2 fold change: -0.00174

RRIRHRPPRLPRPRPRPICDPRP
shrunken log2 fold change: -0.174

RRIRWRPPRLPRPRPRPCKKPRP
shrunken log2 fold change: 0.0155

RRIRHRPPRLPRPRPRPRNLPRP
shrunken log2 fold change: 0.0727

RRIRPRPPRLPRPRPRPGFNPRP
shrunken log2 fold change: -0.173

RRIRERPPRLPRPRPRPRMTPRP
shrunken log2 fold change: 0.0697

RRIRRRPPRLPRPRPRPNCRPRP
shrunken log2 fold change: 0.563

RRIRYRPPRLPRPRPRPDIHPRP
shrunken log2 fold change: -0.549

RRIRMRPPRLPRPRPRPLYNPRP
shrunken log2 fold change: -0.335

RRIRTRPPRLPRPRPRPVKSPRP
shrunken log2 fold change: -0.157

RRIRSRPPRLPRPRPRPQYDPRP
shrunken log2 fold change: -0.352

RRIRGRPPRLPRPRPRPSVCPRP
shrunken log2 fold change: 0.159

RRIRLRPPRLPRPRPRPCNYPRP
shrunken log2 fold change: -0.593

RRIRLRPPRLPRPRPRPGEGPRP
shrunken log2 fold change: -0.036

RRIRGRPPRLPRPRPRPAGRPRP
shrunken log2 fold change: 0.692

RRIRLRPPRLPRPRPRPFHSPRP
shrunken log2 fold change: -0.177

RRIRDRPPRLPRPRPRPTSMPRP
shrunken log2 fold change: 0.104

RRIRWRPPRLPRPRPRPCSSPRP
shrunken log2 fold change: -0.259

RRIRNRPPRLPRPRPRPGAEPRP
shrunken log2 fold change: 0.374

RRIRDRPPRLPRPRPRPQWNPRP
shrunken log2 fold change: -0.37

RRIRMRPPRLPRPRPRPFRKPRP
shrunken log2 fold change: -0.0166

RRIRYRPPRLPRPRPRPASKPRP
shrunken log2 fold change: -1.29e-05

RRIRIRPPRLPRPRPRPINDPRP
shrunken log2 fold change: -0.657

RRIRMRPPRLPRPRPRPSLPPRP
shrunken log2 fold change: -0.0418

RRIRPRPPRLPRPRPRPYFCPRP
shrunken log2 fold change: -0.293

RRIRYRPPRLPRPRPRPKWLPRP
shrunken log2 fold change: -0.221

RRIRKRPPRLPRPRPRPVDCPRP
shrunken log2 fold change: -0.248

RRIRDRPPRLPRPRPRPAVMPRP
shrunken log2 fold change: -0.00993

RRIRRRPPRLPRPRPRPENPPRP
shrunken log2 fold change: 0.541

RRIRIRPPRLPRPRPRPVCFPRP
shrunken log2 fold change: -0.256

RRIRYRPPRLPRPRPRPPAEPRP
shrunken log2 fold change: 0.569

RRIRLRPPRLPRPRPRPRHSPRP
shrunken log2 fold change: 0.0207

RRIRCRPPRLPRPRPRPVGKPRP
shrunken log2 fold change: 0.0374

RRIRSRPPRLPRPRPRPFTKPRP
shrunken log2 fold change: -0.202

RRIRHRPPRLPRPRPRPCGRPRP
shrunken log2 fold change: -0.0197

RRIRPRPPRLPRPRPRPTAEPRP
shrunken log2 fold change: 0.595

RRIRMRPPRLPRPRPRPLFEPRP
shrunken log2 fold change: 0.633

RRIRERPPRLPRPRPRPCRLPRP
shrunken log2 fold change: -0.197

RRIRERPPRLPRPRPRPFMPPRP
shrunken log2 fold change: -0.777

RRIRNRPPRLPRPRPRPNLVPRP
shrunken log2 fold change: -0.0403

RRIRGRPPRLPRPRPRPLDDPRP
shrunken log2 fold change: 1.09

RRIRNRPPRLPRPRPRPTGRPRP
shrunken log2 fold change: 0.0525

RRIRGRPPRLPRPRPRPEYQPRP
shrunken log2 fold change: 0.416

RRIRFRPPRLPRPRPRPNTWPRP
shrunken log2 fold change: -0.277

RRIRGRPPRLPRPRPRPHPWPRP
shrunken log2 fold change: 0.345

RRIRNRPPRLPRPRPRPCRAPRP
shrunken log2 fold change: -0.0439

RRIRNRPPRLPRPRPRPAQEPRP
shrunken log2 fold change: 0.0303

RRIRTRPPRLPRPRPRPRNKPRP
shrunken log2 fold change: -0.342

RRIRHRPPRLPRPRPRPGTTPRP
shrunken log2 fold change: -0.221
